B1: ALF-5755 (protein, listed as Homo sapiens)
chain: MEEPQRELPSARIRCPKGSKAYGSHCYALFLSPKSWTDADLACQKRPSGNLVSVLSGAEGSFVSSLVKSIGNSYSYVWIGLHDPTQGTEPNGEGWEWSSSDVMNYFAWERNPSTISSPGHCASLSRSTAFLRWKDYNCNVRLPYVCKFTD

How the values were obtained:
[1] = tested on: MCF7 cells; assay: In vitro mammary cancer cell line growth (cell density, optical density); assay type: cell-based, Human
Procedure: (§1) The MCF7 (Human breast adenocarcinoma) and PANC1 (Human pancreatic carcinoma, epithelial-like cell line) cell lines were obtained from LGC-Promochem ATCC.
(§2) Sub-confluent cultures (70-80%) were split using Trypsin/EDTA and collected in serum free culture medium. Cell concentration was determined using Trypan blue staining and a Mallasez counting chamber.
(§3) Briefly, 1,000 cells per well were seeded in 96 well-plates. Cells were maintained in DMEM medium complemented with 1% antibiotics (P/S), and cultured in a humidified atmosphere at 37° C. and 5% CO2.
(§4) Cells were maintained in culture for 1 to 3 days (1 plate for each day of analysis). For control of cell survival/growth and validation of the experiments, equivalent cultures were performed in the presence of Foetal calf serum (5%).
(§5) The effect of increasing concentrations of ALF-5755 ranging from 0 to 2000 ng/ml was investigated over time up to 72 hours. Results for the optimal concentration (2000 ng/mL) only are presented below.
(§6) For each time point (24, 48, and 72 hours), 60 minutes prior to cell proliferation measurement, each plate received 10 μL of cell proliferation reagent per well.
(§7) The absorbance of the samples was measured against a background control using a 96-well plate reader at 450 nm with a reference wavelength of 690 nm.
(§8) Raw data are expressed as optical density.
(§9) Two-way ANOVA were performed to study ALF-5755 concentration incidence on cell growth and cell growth over time for each condition of culture (+/−ALF-5755 and +/−doxorubicin). Post-hoc Bonferroni were applied to reveal effects of ALF-5755 concentration at each time point, if any.

[2] = tested on: PANC1 cells; assay: In vitro pancreatic cancer cell line growth (cell density, optical density); assay type: cell-based, Human
Procedure: as §1, §2, §3, §4, §5, §6, §7, §8, §9

[3] = tested on: PyMT cells (primary mammary carcinoma); assay: In vivo model of primary mammary cancer (tumor weight, survival)
Procedure: PyMT (Polyoma middle T) cell line was derived from a primary mammary carcinoma induced by PyMT oncogene activation in FBV mice. Therefore, all experiments were performed in FBV mice, the syngenic corresponding strain.
PyMT mice were sacrificed at 12/13 weeks when presenting a large tumoral mass. The tumour was dissected and cells were dissociated mechanically in DMEM/Glutamax medium and then filtrated. Dead cells were eliminated by centrifugation then viable cells were frozen in aliquots. For tumour implantation in FBV mice, appropriate number of aliquots cells was thawn.
At day 1 of the experiment, female mice received 1 million of PyMT cells, within the 8th mammal in the adipose tissue. Cells were injected as a solution in PBS (0.05 ml total pre-warmed at 37° C.).
Alzet pumps were implanted in the back of the mice, at the time of PyMT cell injection (experiment 1) or after tumor implantation, when doxorubicin treatment started (experiment 2). The pumps continuously delivered either 43.2 μg of ALF-5755 or vehicle per day for a period of 28 days.
Animals started to receive doxorubicin at the time when tumor was detected (15 days after PyMT cells injection for both, ALF-5755 and Vehicle groups) by intra-tumor injection. Animals receive during four weeks, a weekly dose of 1 mg/kg that was known to induce tumor cell-death.
At the end of doxorubicin treatment (6 weeks after the beginning of the procedure), animals were sacrificed.
The weight of the tumors was compared between the two groups by mean of non-parametric one tailed Mann whitney test. Survival was compared by mean of one-tailed exact Fischer test.

[4] = tested on: DHDK12 cells (liver metastases of colorectal cancer); assay: In vivo model of liver metastases of colorectal cancer (tumor area after partial hepatectomy); parameters: species or system BDIX rat; details: 0.5 mg/kg single injection; for ratio of tumor liver area to total liver area: 14 days after treatment
Procedure: DHDK12 cell line was derived from liver metastatic cells developed by BDIX rats after 1,2-Dimethylhydrazine) intoxication (chemically-induced cancer). Therefore, all experiments were performed in BDIX rat, the syngenic corresponding strain.
Cells were expanded in vitro in a medium composed of 50% DMEM and 50% F12 (Invitrogen Gibco, Pailsey, GB) complemented with foetal calf serum (10%) and a combination of antibiotics (1% penicillin/streptomycin). Absence of mycoplasm contamination was controlled.
At day 1 of the experiment, rats were anesthetized with isofluran gas. After laparotomy they received 20 millions of DHDK12 cells.
At day seven after the injection of cancerous cells, when the tumor was already implanted, two types of hepatectomies were performed: either 30% or 70% of the liver was resected.
The control group was composed of animals receiving either the equivalent volume of vehicle or no injection.
Fourteen days after hepatectomy and treatment, animals were sacrificed. Serial sections of complete liver were performed for each animal (millimetric sections, the number of sections depending on the liver size and morphology). The tumor expansion was assessed by quantifying in square pixels (pixel^2) the area of each cancer cells nodule. The complete area of each section was also recorded and a ratio of the nodule/total area was calculated. Analyses were performed with Adobe Photoshop CS3 software.
Depending on the experiment, one-tailed t-test or two-tailed Mann-Whitney tests were performed to quantify the effect of ALF-5755 on nodule expansion. Area of nodules was expressed as a percentage of total liver area.

| Molecule | EC50 ([1]; Homo sapiens, MCF7 cells at 24H) [µM] | reduction of the growth of MCF7 cancerous cells ([1]; doxorubicin 75 μM, 24 hours post-plating, maintained at 72 hours) | EC50 ([2]; Homo sapiens, PANC-1, PANC1 cells at 72H) [nM] | reduction of the cell growth ([2]; doxorubicin 2.5 μM, effective at 48 hours post-plating, maintained at 72 hours) | deaths during the experiment ([3]; exp 1, ALF-5755 infusion with doxorubicin, n=3) | tumor weight at day 45 after implantation ([3]; exp 1, infusion 43.2 μg per day for 28 days from implantation, with weekly intra-tumor doxorubicin, control 1.1±0.2 g, P=0.059) [g] | deaths during the course of the experiment ([3]; exp 2, doxorubicin treated animals (1 mg/kg weekly intra-tumor for 4 weeks), same as group without doxorubicin) | deaths during the experiment, in total ([3]; exp 2, groups with and without doxorubicin pooled, n=14, placebo 6 of 14 died, P=0.008) | deaths during the course of the experiment ([3]; exp 2, infusion 43.2 μg per day for 28 days from tumor detection, group without doxorubicin, placebo 3 of 7 died) | ratio of tumor liver area to total liver area ([4]; after 30% partial hepatectomy, control ratio 0.14) | decrease of tumor/total liver area ratio versus controls ([4]; after 30% partial hepatectomy, versus non-injected controls, p=0.022) | ratio of tumor liver area to total liver area ([4]; after 70% partial hepatectomy, control ratio 0.29) | decrease of tumor/total liver area ratio versus controls ([4]; after 70% partial hepatectomy, versus vehicle, p=0.0026) | maximum additional reduction in cell density in combination to doxorubicin ([1]; ALF-5755 2000 ng/mL + doxorubicin 75 μM versus doxorubicin alone, 72 hours) [%] | influence on the doxorubicin effect on cell density ([1]; ALF-5755 at any of the tested concentrations (0 to 2000 ng/ml) with doxorubicin 75 μM) | additional decrease of cell density in combination to doxorubicin ([2]; ALF-5755 2000 ng/mL + doxorubicin 2.5 μM versus doxorubicin alone, 24 hours post-plating) |
| --- | --- | --- | --- | --- | --- | --- | --- | --- | --- | --- | --- | --- | --- | --- | --- | --- |
| COc1cccc2c1C(=O)c1c(O)c3c(c(O)c1C2=O)C[C@@](O)(C(=O)CO)C[C@@H]3O[C@H]1C[C@H](N)[C@H](O)[C@H](C)O1 [doxorubicin, reference compound] | 75 | about 50% | 2500 | about 50% |  |  |  |  |  |  |  |  |  |  |  |  |
| B1 |  |  |  |  | no death observed | 0.63 ± 0.12 | exact same result | none | no death was observed | 0.05 | about 60% | 0.15 | about 50% | 33 | did not compromise the doxorubicin effect | up to 22% |

From patent publication US9474783B2, “HIP/PAP protein and derivatives thereof for use in treating cancer” (priority 2012, dated 2016)
